Ends that are not written are not given here.
Molecular target: T1, FLAG-FBXL12-FL (full length) (human, UniProt Q9NXK8 1-326)
T1 sequence (looked up): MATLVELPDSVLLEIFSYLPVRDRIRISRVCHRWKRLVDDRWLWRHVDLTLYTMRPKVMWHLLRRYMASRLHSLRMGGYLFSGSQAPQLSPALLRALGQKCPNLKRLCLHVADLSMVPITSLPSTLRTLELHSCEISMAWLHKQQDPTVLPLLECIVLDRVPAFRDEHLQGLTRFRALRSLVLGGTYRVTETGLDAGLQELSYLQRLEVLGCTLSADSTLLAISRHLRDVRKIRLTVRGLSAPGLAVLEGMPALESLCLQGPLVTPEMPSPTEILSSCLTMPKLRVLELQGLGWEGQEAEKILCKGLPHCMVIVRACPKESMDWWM
Experiment: pull-down

## MVSKRRLSKSEDKE (also: phosphorylated by CHK1, residues not given here) [FANCD2 N-terminal peptide WT, phosphorylated by CHK1]
  binding result: binds
